For this experiment, the target named is HLA-A*02:01 (Homo sapiens, UniProt P04439, D140Y/D185E/D98H/E176V/E277Q/G131W/G231S/I119V/I121R/I166T/I218V/L300P/L318F/N151K/N90K/P208A/P217A/Q86G/Q94H/R138H/R169H/T345S). In words: MHC binding assay (UV-ligand exchange, beta2m ELISA). To be noted: binding of HLA-class I restricted peptides to HLA-A*02:01, β2m ELISA. The gist of the method: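 Peptide–MHC complexes formed by UV-ligand exchange, cleaving a UV-sensitive peptide so the test peptide can bind. Exchange yield measured by ELISA: complexes captured on streptavidin-coated wells, diluted 100-fold, detected with HRP anti-β2m (1 h, 37 °C) and TMB at 450 nm, against refolded HLA-A*02:01/MLA-001 standards (15-500 ng/ml).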
In general terms: ELISA stands for enzyme-linked immunosorbent assay.
In the case of “130 (LLVLIPVYL; listed as Homo sapiens) [compound 130]”, the “Peptide Exchange (MHC class I binding score, peptide exchange yield)” value (shortened to “Peptide Exchange”) was ““+” (≥10% = +)”.
As to “261 (SLVEAQGWLV; listed as Homo sapiens) [compound 261]”, the “Peptide Exchange” value was ““+++” (≥50 = +++)”.
For “214 (RLQELTEKL; listed as Homo sapiens) [compound 214]”, the “Peptide Exchange” value is ““+++” (≥50 = +++)”.
On to “229 (FLLNLQNCHL; listed as Homo sapiens) [compound 229]”, for which the “Peptide Exchange” value is ““++++” (≥75% = ++++)”.
For “52 (FLVETGFLHV; listed as Homo sapiens) [compound 52]” the value was ““++++” (≥75% = ++++)”.
For “183 (VLMPTVYQQGV; listed as Homo sapiens) [compound 183]”, the “Peptide Exchange” value is reported as ““+++” (≥50 = +++)”.
Turning to “106 (FMASHLDYL; listed as Homo sapiens) [compound 106]”, the “Peptide Exchange” value is ““+++” (≥50 = +++)”.
As for “150 (SLFDQPLSII; listed as Homo sapiens) [compound 150]”, the “Peptide Exchange” value is listed as ““+++” (≥50 = +++)”.
Consider “228 (FLGGLSPGV; listed as Homo sapiens) [compound 228]”, for which the “Peptide Exchange” value is ““+++” (≥50 = +++)”.
In the case of “140 (QIAELPATSV; listed as Homo sapiens) [compound 140]” it was ““+++” (≥50 = +++)”; in that of “76 (GLLRIIPYL; listed as Homo sapiens) [compound 76]”, ““+++” (≥50 = +++)”.
For “190 (VVMGTVPRL; listed as Homo sapiens) [compound 190]”, the “Peptide Exchange” value is listed as ““+++” (≥50 = +++)”.
As to “222 (ALWELSLKI; listed as Homo sapiens) [compound 222]”, the “Peptide Exchange” value was ““+++” (≥50 = +++)”.
On to “128 (LLSEEEYHL; listed as Homo sapiens) [compound 128]”, for which the “Peptide Exchange” value was ““+++” (≥50 = +++)”.
For “372 (SLFGPLPGPGPALV; listed as Homo sapiens) [compound 372]”, the “Peptide Exchange” value is given as ““+++” (≥50 = +++)”.
For “22 (ALWDPVIEL; listed as Homo sapiens) [compound 22]” the value was ““+++” (≥50 = +++)”.
For “13 (VVDGMPPGV; listed as Homo sapiens) [compound 13]” the value was ““+++” (≥50 = +++)”; for “113 (KVPAEEVLVAV; listed as Homo sapiens) [compound 113]”, ““+++” (≥50 = +++)”; for “252 (NLLDPGSSYLL; listed as Homo sapiens) [compound 252]”, ““+++” (≥50 = +++)”.
Regarding “188 (VMGDIPAAV; listed as Homo sapiens) [compound 188]”, the “Peptide Exchange” value was ““++” (≥20% = ++)”.
For “236 (GLLESGRHYL; listed as Homo sapiens) [compound 236]”, the “Peptide Exchange” value was ““+++” (≥50 = +++)”.
In the case of “65 (GLDDMKANL; listed as Homo sapiens) [compound 65]” it was ““++” (≥20% = ++)”.
Regarding “243 (ILPTLEKELFL; listed as Homo sapiens) [compound 243]”, the “Peptide Exchange” value is given as ““+++” (≥50 = +++)”.
As for “258 (RLDYITAEI; listed as Homo sapiens) [compound 258]”, the “Peptide Exchange” value was ““+++” (≥50 = +++)”.
On to “133 (YLLSGDISEA; listed as Homo sapiens) [compound 133]”, for which the “Peptide Exchange” value was ““+++” (≥50 = +++)”.

Values taken from patent US10064928B2, “Peptides and combination of peptides for use in immunotherapy against CLL and other cancers” (IMMATICS BIOTECHNOLOGIES GMBH, priority 2015, dated 2018).
